Laboratory results from publication PMC4477859.

Target: wild-type CENP-A nucleosome arrays with Myc-H4 (UniProt P49450)
Test: pull-down

UniProt P49450, sequence (P49450 whole entry, looked up): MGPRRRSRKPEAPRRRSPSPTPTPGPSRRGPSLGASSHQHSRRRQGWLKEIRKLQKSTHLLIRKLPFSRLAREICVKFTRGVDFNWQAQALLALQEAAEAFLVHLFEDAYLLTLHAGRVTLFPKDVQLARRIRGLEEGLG

CENP-C to CENP-A nucleosome ratio, low against high saturation arrays: 2 fold
Substance: CENP-C (natural protein)
